This is an account of results in paper PMC4509971.

This experiment concerns the target RNH domain of HIV-1 reverse transcriptase (RT residues 427-560) with E438N and T477A (HIV-1). Put plainly: SEC-MALS.

As usually defined, the stoichiometry N is a count of units in the complex or per binding partner. In turn, “RNH domain of HIV-1 reverse transcriptase (RT residues 427-560) with E438N and T477A (domain or fragment)” displayed a stoichiometry N of 2.
